These results are taken from patent US20260097113A1 (Pfizer, published 2026).

Experiment [1] concerns the target RSV A + RSV B bivalent composition (RSV subtype A; RSV subtype B). Nature of the experiment: AM14 Fab titration by SEC; composition of Table 17; Pre-lyo Prep 1, T0 (second value). In general terms: In gel filtration, larger molecules generally elute earlier.
Experiment [2] has the same target. Nature of the experiment: AM14 Fab titration by SEC; High-Slow 1 cycle; T0 (second value).
Experiment [3] has the same target. Nature of the experiment: AM14 Fab titration by SEC; Target cycle; 1 M 2-8°C.
For experiment [4] the target is unchanged. Nature of the experiment: AM14 Fab titration by SEC; Target cycle; 8 M 25°C.
Experiment [5] shares this target. Put plainly: AM14 Fab titration by SEC; High-Slow 1 cycle; 8 M 25°C.
Experiment [6] shares this target. Put plainly: AM14 Fab titration by SEC; Low-Fast cycle; T0 (second value).
Experiment [7] has as its target T1, RSV F protein of subtype A comprising a polypeptide of SEQ ID NO: 1 and a polypeptide of SEQ ID NO: 2 (RSV subtype A, UniProt P11209 137-513; P03420 26-109).
T1 construct: Stabilized prefusion F trimer made of three F2-F1 heterodimers; Produced recombinantly in CHO cells; also called RSV A; RSVA
T1 chain 1: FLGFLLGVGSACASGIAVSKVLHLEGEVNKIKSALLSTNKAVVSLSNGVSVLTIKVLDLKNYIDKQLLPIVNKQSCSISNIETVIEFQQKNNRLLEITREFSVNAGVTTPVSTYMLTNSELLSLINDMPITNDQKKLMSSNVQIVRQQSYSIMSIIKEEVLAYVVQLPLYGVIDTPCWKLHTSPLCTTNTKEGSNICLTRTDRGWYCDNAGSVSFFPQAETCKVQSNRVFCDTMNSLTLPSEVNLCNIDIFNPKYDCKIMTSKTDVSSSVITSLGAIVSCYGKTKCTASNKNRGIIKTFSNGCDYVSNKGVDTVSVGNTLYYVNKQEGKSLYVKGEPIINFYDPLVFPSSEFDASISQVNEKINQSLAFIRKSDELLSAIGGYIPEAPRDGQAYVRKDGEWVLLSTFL
T1 chain 2: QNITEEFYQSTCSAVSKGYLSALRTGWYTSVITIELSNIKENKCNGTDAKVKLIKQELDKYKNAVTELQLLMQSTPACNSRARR
Nature of the experiment: AM14 ELISA; F5 (pH 6, 100 mM NaCl, 9.0% sucrose); 1 wk 5°C.

In experiment [8] the target is T1, RSV F protein of subtype A comprising a …. Put plainly: AM14 ELISA; F2 (pH 8, 0 mM NaCl, 0% sucrose); 2 wk 25°C. In general terms: In an ELISA, binding on a coated surface is turned into a signal by an enzyme label.
The target is the same in experiment [9]. Put plainly: AM14 ELISA; F15 (pH 6, 0 mM NaCl, 9% sucrose); 1 wk 5°C.
The target is the same in experiment [10]. Nature of the experiment: AM14 ELISA; F19 (pH 7, 50 mM NaCl, 3% trehalose + 3% mannitol); 2 wk 5°C.
Experiment [11] has the same target. Nature of the experiment: AM14 ELISA; F19 (pH 7, 50 mM NaCl, 3% trehalose + 3% mannitol); 2 wk 25°C.
Experiment [12] shares this target. Put plainly: AM14 ELISA; F6 (pH 7, 0 mM NaCl, 4.5% sucrose); 2 wk 5°C.
Experiment [13] shares this target. Put plainly: AM14 ELISA; F16 (pH 6, 0 mM NaCl, 0% sucrose); 1 wk 5°C.
Experiment [14] shares this target. Put plainly: AM14 ELISA; F3 (pH 8, 0 mM NaCl, 9% sucrose); 2 wk 5°C.
For experiment [15] the target is unchanged. Put plainly: AM14 ELISA; F14 (pH 7, 50 mM NaCl, 4.5% sucrose); 1 wk 5°C.
For experiment [16] the target is unchanged. Put plainly: AM14 ELISA; F15 (pH 6, 0 mM NaCl, 9% sucrose); 2 wk 25°C.
The target is the same in experiment [17]. Nature of the experiment: AM14 ELISA; F9 (pH 8, 50 mM NaCl, 4.5% sucrose); 2 wk 25°C.

For AM14 Fab, the Prefusion Content (%) was found to be 84% in experiment [1]; 68% in experiment [2]; 59% in experiment [3]; 75% in experiment [4]; 63% in [5]; 82% in experiment [6].

B1: AM14 (trimeric prefusion specific antibody of the AM14 ELISA) (antibody, V domains shown)
VH: EVQLVESGGGVVQPGRSLRLSCAASGFSFSHYAMHWVRQAPGKGLEWVAVISYDGENTYYADSVKGRFSISRDNSKNTVSLQMNSLRPEDTALYYCARDRIVDDYYYYGMDVWGQGATVTVSS
VL: DIQMTQSPSSLSASVGDRVTITCQASQDIKKYLNWYHQKPGKVPELLMHDASNLETGVPSRFSGRGSGTDFTLTISSLQPEDIGTYYCQQYDNLPPLTFGGGTKVEIKR
notes: Antibody as used in the AM14 ELISA, detected with an HRP-labeled secondary antibody
Turning to B1, the “AM14 prefusion content (%), relative to standard” value in experiment [7] came to 78%; in experiment [8] it was 56%; in [9], 86%; in [10] it was 75%; in [11], 84%; in experiment [12], 77%. Further, the “AM14 prefusion content (%), relative to standard” value in [13] came out at 65%; in experiment [14], 70%; in experiment [15], 85%; in experiment [16], 91%; in [17] it was 60%.
